Data reported in patent publication US20240066131A1 (Protagonist Therapeutics, Inc., priority 2020, published 2024).
Starred links: 1 amine or outer side, 2 acyl side, 3 side chain; linkers in the order of their positions; H or OH if unused. Non-standard residues stand in square brackets, D forms with d. Residues, ends and D or L forms follow the SMILES beside them. Groups on a side chain read outwards from the residue. No end group written: not given here. *: point of attachment. bhGly(phenylbutyl) = 3-((4-phenylbutyl)amino)propanoic acid, O=C(CCN(CCCCc1ccccc1)[*:1])[*:2]; Carnitine = carnitine group on the Lys side chain, C[N+](C)(C)C[C@H](O)CC(=O)*; PeptoidIsovaleric Acid = not defined here; Dip = N[C@H](C(=O)O)C(c1ccccc1)c1ccccc1; γGlu = O=C(O)[C@H](CCC(=O)[*:2])N[*:1]; NH(4-phenylbutyl) = c1ccc(CCCCN*)cc1; Palmitoyl = CCCCCCCCCCCCCCCC(=O)*; β3hF = N[C@H](CC(=O)O)Cc1ccccc1; DMG_N_2ae = not defined here; NMeK = CN[C@@H](CCCCN)C(=O)O; Isovaleryl = CC(C)CC(=O)*; Orn = NCCC[C@H](N)C(=O)O; Dap = NC[C@H](N)C(=O)O; Ahx = NCCCCCC(=O)O

T1: human ferroportin (SLC40A1) fused in frame with GFP, stably expressed in HEK293 cells (human, UniProt Q9NP59 1-571)
T1 sequence (looked up): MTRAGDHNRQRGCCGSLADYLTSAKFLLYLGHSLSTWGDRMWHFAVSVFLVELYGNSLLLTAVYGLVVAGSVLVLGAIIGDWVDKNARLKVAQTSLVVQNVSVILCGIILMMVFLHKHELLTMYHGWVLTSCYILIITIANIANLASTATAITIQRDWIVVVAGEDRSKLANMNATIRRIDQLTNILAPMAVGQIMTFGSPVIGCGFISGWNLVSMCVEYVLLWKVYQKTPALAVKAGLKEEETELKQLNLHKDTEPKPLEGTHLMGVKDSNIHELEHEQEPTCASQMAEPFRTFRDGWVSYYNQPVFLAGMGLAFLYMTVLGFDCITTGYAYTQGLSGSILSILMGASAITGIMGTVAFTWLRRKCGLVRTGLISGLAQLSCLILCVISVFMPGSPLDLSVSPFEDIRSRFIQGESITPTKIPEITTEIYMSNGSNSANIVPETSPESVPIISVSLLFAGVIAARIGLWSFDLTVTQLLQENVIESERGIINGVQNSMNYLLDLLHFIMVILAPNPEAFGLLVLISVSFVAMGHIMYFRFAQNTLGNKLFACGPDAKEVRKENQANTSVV

T2: ferroportin endogenously expressed on T47D cells (HTB 133, ATCC) (human, UniProt Q9NP59 1-571)
T2 sequence (looked up): T1 sequence (looked up)

T3: ferroportin (Homo sapiens, UniProt Q9NP59)
T3 sequence (Q9NP59 1-571): T1 sequence (looked up)

B1: Isovaleric Acid-E-T-H-F-P-A-I-[Lys(Ahx_Palm)]-F-E-P-R-S-K-G-A-K-NH2 (peptide)
peptide: Isovaleryl-ETHFPAIK([Ahx-Palmitoyl])FEPRSKGAK-NH2
SMILES: CCCCCCCCCCCCCCCC(=O)NCCCCCC(=O)NCCCC[C@H](NC(=O)[C@@H](NC(=O)[C@H](C)NC(=O)[C@@H]1CCCN1C(=O)[C@H](Cc1ccccc1)NC(=O)[C@H](Cc1c[nH]cn1)NC(=O)[C@@H](NC(=O)[C@H](CCC(=O)O)NC(=O)CC(C)C)[C@@H](C)O)[C@@H](C)CC)C(=O)N[C@@H](Cc1ccccc1)C(=O)N[C@@H](CCC(=O)O)C(=O)N1CCC[C@H]1C(=O)N[C@@H](CCCNC(=N)N)C(=O)N[C@@H](CO)C(=O)N[C@@H](CCCCN)C(=O)NCC(=O)N[C@@H](C)C(=O)N[C@@H](CCCCN)C(N)=O
B2: [Isovaleric Acid]-K-T-H-[Dpa]-P-A-I-E-[bhPhe]-[Lys(Ahx_Palm)]-[Lys(Carnitine)]-NH2 (peptide)
peptide: Isovaleryl-KTH[Dip]PAIE[β3hF]K([Ahx-Palmitoyl])K(Carnitine)-NH2
SMILES: CCCCCCCCCCCCCCCC(=O)NCCCCCC(=O)NCCCC[C@H](NC(=O)C[C@H](Cc1ccccc1)NC(=O)[C@H](CCC(=O)O)NC(=O)[C@@H](NC(=O)[C@H](C)NC(=O)[C@@H]1CCCN1C(=O)[C@@H](NC(=O)[C@H](Cc1c[nH]cn1)NC(=O)[C@@H](NC(=O)[C@H](CCCCN)NC(=O)CC(C)C)[C@@H](C)O)C(c1ccccc1)c1ccccc1)[C@@H](C)CC)C(=O)N[C@@H](CCCCNC(=O)C[C@@H](O)C[N+](C)(C)C)C(N)=O
B3: [Isovaleric Acid]-K-T-H-[Dpa]-P-A-[Lys(Carnitine)]-E-[N-MeLys(Ahx_Palm)]-[Phenylbutyl Amine] (peptide)
peptide: Isovaleryl-KTH[Dip]PAK(Carnitine)E[NMeK]([Ahx-Palmitoyl])-{NH(4-phenylbutyl)}
SMILES: CCCCCCCCCCCCCCCC(=O)NCCCCCC(=O)NCCCC[C@@H](C(=O)NCCCCc1ccccc1)N(C)C(=O)[C@H](CCC(=O)O)NC(=O)[C@H](CCCCNC(=O)C[C@@H](O)C[N+](C)(C)C)NC(=O)[C@H](C)NC(=O)[C@@H]1CCCN1C(=O)[C@@H](NC(=O)[C@H](Cc1c[nH]cn1)NC(=O)[C@@H](NC(=O)[C@H](CCCCN)NC(=O)CC(C)C)[C@@H](C)O)C(c1ccccc1)c1ccccc1
B4: [Isovaleric Acid]-E-T-H-[Dpa]-P-[DMG_N_2ae]-[(D)Lys]-[bhPhe]-[Lys(Ahx_Palm)]-NH2 (peptide)
peptide: XETHXPXXXX
modifications: N-term Isovaleric Acid; Dpa4; DMG_N_2ae6; (D)Lys7; bhPhe8; Lys(Ahx_Palm)9; C-term NH2
B5: Isovaleric Acid-E-T-H-A-P-A-I-[(D)Lys]-[bhPhe]-[Lys(Ahx_Palm)]-[(D)Lys]-A-NH2 (peptide)
peptide: Isovaleryl-ETHAPAI[dK][β3hF]K([Ahx-Palmitoyl])[dK]A-NH2
SMILES: CCCCCCCCCCCCCCCC(=O)NCCCCCC(=O)NCCCC[C@H](NC(=O)C[C@H](Cc1ccccc1)NC(=O)[C@@H](CCCCN)NC(=O)[C@@H](NC(=O)[C@H](C)NC(=O)[C@@H]1CCCN1C(=O)[C@H](C)NC(=O)[C@H](Cc1c[nH]cn1)NC(=O)[C@@H](NC(=O)[C@H](CCC(=O)O)NC(=O)CC(C)C)[C@@H](C)O)[C@@H](C)CC)C(=O)N[C@H](CCCCN)C(=O)N[C@@H](C)C(N)=O
B6: Isovaleric Acid-E-T-H-[Dpa]-A-A-I-[(D)Lys]-[bhPhe]-[Lys(Ahx_Palm)]-[(D)Lys]-A-NH2 (peptide)
peptide: Isovaleryl-ETH[Dip]AAI[dK][β3hF]K([Ahx-Palmitoyl])[dK]A-NH2
SMILES: CCCCCCCCCCCCCCCC(=O)NCCCCCC(=O)NCCCC[C@H](NC(=O)C[C@H](Cc1ccccc1)NC(=O)[C@@H](CCCCN)NC(=O)[C@@H](NC(=O)[C@H](C)NC(=O)[C@H](C)NC(=O)[C@@H](NC(=O)[C@H](Cc1c[nH]cn1)NC(=O)[C@@H](NC(=O)[C@H](CCC(=O)O)NC(=O)CC(C)C)[C@@H](C)O)C(c1ccccc1)c1ccccc1)[C@@H](C)CC)C(=O)N[C@H](CCCCN)C(=O)N[C@@H](C)C(N)=O

Biological target: T1, human ferroportin (SLC40A1) fused in …
Assay: cell-based or functional assay
Conditions: not given

Row | Molecule | FPN EC50
1 | B1 | 177 nM

Biological target: T1, human ferroportin (SLC40A1) fused in …
Assay: cell-based or functional assay
Conditions: not given
Remark: another data set of the same source

Row | Molecule | IC50: FPN internalisation
2 | B2 | 10.7 nM
3 | B3 | 5.9 nM
4 | Isovaleryl-ETH[Dip]P[DMG_N_2ae][NMeK]([Ahx-Palmitoyl])[β3hF]-NH2 (reading uncertain) [[Isovaleric Acid]-E-T-H-[Dpa]-P-[DMG_N_2ae]-[N-MeLys(Ahx_Palm)]-[bhPhe]-NH2] | 10.7 nM
5 | Isovaleryl-KTH[Dip]P[DMG_N_2ae]E[β3hF]K([Ahx-Palmitoyl])-NH2 (reading uncertain) [[Isovaleric Acid]-K-T-H-[Dpa]-P-[DMG_N_2ae]-E-[bhPhe]-[Lys(Ahx_Palm)]-NH2] | 13.6 nM
6 | Isovaleryl-[Orn]TH[Dip]PAI[NMeK]([Ahx-Palmitoyl])[bhGly(phenylbutyl)] [[Isovaleric Acid]-[Orn]-T-H-[Dpa]-P-A-I-[N-MeLys(Ahx_Palm)]-[bhGly(phenylbutyl)]] | 201 nM
7 | B4 | 35.6 nM
8 | Isovaleryl-[Dap]TH[Dip]PAI[NMeK]([Ahx-Palmitoyl])[bhGly(phenylbutyl)] [[Isovaleric Acid]-[Dap]-T-H-[Dpa]-P-A-I-[N-MeLys(Ahx_Palm)]-[bhGly(phenylbutyl)]] | 597 nM
9 | XETHXPXX (N-term Isovaleric Acid; Dpa4; Lys(Ahx_Palm)6; C-term Phenylbutyl Amine) [[Isovaleric Acid]-E-T-H-[Dpa]-P-[Lys(Ahx_Palm)]-[Phenylbutyl Amine]] | 5.41 nM

Biological target: T2, ferroportin endogenously expressed on …
Assay: cell-based or functional assay
Conditions: not given

Row | Molecule | T47D MSA IC50
10 | B1 | 11.4 nM

Biological target: T1, human ferroportin (SLC40A1) fused in …
Assay: cell-based or functional assay
Conditions: not given
Remark: another data set of the same source

Row | Molecule | FPN IC50
11 | Isovaleryl-ETH[Dip]PAIK([Ahx-Palmitoyl])[dK](Gal)-NH2 [Isovaleric Acid-E-T-H-[Dpa]-P-A-I-[Lys(Ahx_Palm)]-d[Lys(Gal-NH2] | 181 nM
12 | B5 | > 3000 nM
13 | Isovaleryl-ETH[Dip][dK](Gal)AIK([Ahx-Palmitoyl])[β3hF]-NH2 [Isovaleric Acid-E-T-H-[Dpa]-d[Lys(Gal)]-A-I-[Lys(Ahx_Palm)]-[bhPhe]-NH2] | 654 nM
14 | Isovaleryl-[dK](Gal)TH[Dip]PAIK([Ahx-Palmitoyl])[β3hF]-NH2 [Isovaleric Acid-d[Lys(Gal-T-H-[Dpa]-P-A-I-[Lys(Ahx_Palm)]-[bhPhe]-NH2] | > 3000 nM
15 | Isovaleryl-K(Gal)TH[Dip]PAIK([Ahx-Palmitoyl])[β3hF]-NH2 [Isovaleric Acid-[Lys(Gal)]-T-H-[Dpa]-P-A-I-[Lys(Ahx_Palm)]-[bhPhe]-NH2] | 76 nM
16 | {PeptoidIsovaleric Acid}-ETH[Dip]PAIK([Ahx-Palmitoyl])[β3hF]-NH2 (reading uncertain) [PeptoidIsovaleric Acid-E-T-H-[Dpa]-P-A-I-[Lys(Ahx_Palm)]-[bhPhe]-NH2] | 1120 nM
17 | K(Isovaleryl)TH[Dip]PAIK([Ahx-Palmitoyl])[bhF] (also: marks (1:1) at Lys1 and (1:2) at bhF9 not explained) [[Lys(IVA(1:1)-T-H-[Dpa]-P-A-I-[Lys(Ahx_Palm)]-bhF(1:2)] | 2150 nM
18 | Isovaleryl-KTH[Dip]PAIK([Ahx-Palmitoyl])[β3hF] [Isovaleric Acid-K-T-H-[Dpa]-P-A-I-[Lys(Ahx_Palm)]-[bhPhe]] | 126 nM
19 | B6 | 183 nM
20 | Isovaleryl-ETH[Dip]P[dK](Gal)IK([Ahx-Palmitoyl])[β3hF]-NH2 [Isovaleric Acid-E-T-H-[Dpa]-P-d[Lys(Gal)]-I-[Lys(Ahx_Palm)]-[bhPhe]-NH2] | 246 nM

Biological target: T3, ferroportin
Assay: T47D cell-based ferroportin internalization assay in presence of mouse serum albumin (MSA), AF647 detection peptide, flow cytometry
Set-up: a human breast carcinoma adherent cell line which endogenously expresses ferroportin; host or cells: T47D
Conditions: second Table 6D, T47D/MSA data; with mouse serum albumin
Description: The potency of the peptides in causing ferroportin internalization was evaluated in a T47D cell-based assay. […] In this internalization assay, the potency of the test peptides was evaluated in presence of serum albumin which is the main protein component in the blood. T47D cells were maintained in RPMI media (containing required amount of fetal bovine serum) and regularly sub-cultured. […] The test peptide dilution series were allowed to incubate at room temperature for 30 min. Then the media was aspirated from the 96-well cell plate and test peptide dilution series were added. After 1 hr incubation, the media with test peptides was aspirated out and A1F647-conjugated detection peptide was added at fixed concentration of 200 nM. […] The cells were washed again after a 2 hr incubation in preparation for flow cytometry analysis. The Median Fluorescence Intensity (MFI) of the AF647-positive population was measured (after removing dead cells and non-singlets from the analysis). The MFI values were used to generate a dose-response curve and obtain IC50 potencies for the test peptides. The IC50 potencies were calculated by using 4-parameter non-linear fitting function in Graphpad Prism (Table 6D).

Row | Molecule | IC50
21 | CCCCCCCCCCCCCCCC(=O)NCCCCCC(=O)NCCCC[C@H](NC(=O)[C@@H](NC(=O)[C@H](C)NC(=O)[C@@H]1CCCN1C(=O)[C@H](Cc1ccccc1)NC(=O)[C@H](Cc1c[nH]cn1)NC(=O)[C@@H](NC(=O)[C@H](CCC(=O)O)NC(=O)CC(C)C)[C@@H](C)O)[C@@H](C)CC)C(=O)N[C@@H](Cc1ccccc1)C(=O)N[C@@H](CCC(=O)O)C(=O)N1CCC[C@H]1C(=O)N[C@@H](CCCNC(=N)N)C(=O)N[C@@H](CO)C(=O)N[C@@H](CCCCN)C(=O)NCC(=O)N[C@@H](C)C(=O)N[C@@H](CCCCN)C(N)=O [compound 81] (Isovaleryl-ETHFPAIK([Ahx-Palmitoyl])FEPRSKGAK-NH2) | 11.4 nM
22 | CCCCCCCCCCCCCCCC(=O)N[C@@H](CCC(=O)NCCCC[C@H](NC(=O)[C@@H](NC(=O)[C@H](C)NC(=O)[C@@H]1CCCN1C(=O)[C@@H](NC(=O)[C@H](Cc1c[nH]cn1)NC(=O)[C@@H](NC(=O)[C@H](CCC(=O)O)NC(=O)CC(C)C)[C@@H](C)O)C(c1ccccc1)c1ccccc1)[C@@H](C)CC)C(=O)N[C@H](CC(=O)N[C@H](CCCCN)C(N)=O)Cc1ccccc1)C(=O)O [compound 131] (Isovaleryl-ETH[Dip]PAIK([γGlu-Palmitoyl])[β3hF][dK]-NH2) | 13.3 nM
